Measurements as given in publication PMC11887224.

Target: Trop-2 (recombinant, His-tagged) (UniProt P09758 27-274)
Experiment: SPR

Chain of Trop-2 (recombinant, His-tagged) (P09758 27-274): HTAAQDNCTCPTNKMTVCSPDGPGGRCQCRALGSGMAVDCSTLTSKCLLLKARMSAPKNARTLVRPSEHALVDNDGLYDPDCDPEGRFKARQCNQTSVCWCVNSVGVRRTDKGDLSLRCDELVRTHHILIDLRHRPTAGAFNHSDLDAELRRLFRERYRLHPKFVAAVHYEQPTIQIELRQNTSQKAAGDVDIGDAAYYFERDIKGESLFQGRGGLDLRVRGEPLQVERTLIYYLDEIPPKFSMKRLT

B1: TRPFL (structured_DNA)
DNA: CTACGGTGCCTTGAAGTGACTCGTTCCGTCCCTGGCCGCTCCTACTATCGATGTGTCATAGCAGGTCACTTCCAGG
- Kd: 110 nM
